Ends that are not written are not given here.

The target of experiment [1] is T1, recombinant human VCAM-1/Fc chimera (human, UniProt P19320 25-698).
T1 sequence (looked up): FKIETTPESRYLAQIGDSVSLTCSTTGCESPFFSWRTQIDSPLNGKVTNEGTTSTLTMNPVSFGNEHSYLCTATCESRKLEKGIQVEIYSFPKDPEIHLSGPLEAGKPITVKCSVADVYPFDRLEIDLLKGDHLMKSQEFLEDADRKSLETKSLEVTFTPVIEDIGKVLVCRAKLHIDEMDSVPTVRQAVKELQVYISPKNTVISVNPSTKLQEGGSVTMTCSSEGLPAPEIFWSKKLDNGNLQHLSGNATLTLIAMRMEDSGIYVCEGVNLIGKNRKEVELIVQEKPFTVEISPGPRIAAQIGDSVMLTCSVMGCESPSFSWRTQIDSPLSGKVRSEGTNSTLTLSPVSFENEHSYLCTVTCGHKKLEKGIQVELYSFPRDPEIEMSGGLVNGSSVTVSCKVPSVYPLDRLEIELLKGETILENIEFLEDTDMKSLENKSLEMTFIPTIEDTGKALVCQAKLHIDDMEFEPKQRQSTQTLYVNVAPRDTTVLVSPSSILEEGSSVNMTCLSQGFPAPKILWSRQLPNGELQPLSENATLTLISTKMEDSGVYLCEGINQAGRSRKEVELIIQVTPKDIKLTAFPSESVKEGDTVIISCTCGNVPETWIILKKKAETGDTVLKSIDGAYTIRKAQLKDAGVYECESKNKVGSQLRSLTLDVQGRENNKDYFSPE
Description: cell-based or functional assay.

Experiment [2] has as its target T1, recombinant human VCAM-1/Fc chimera. The experiment is described as follows: ELISA: peptide immobilized on the plate, VCAM-1/Fc at increasing concentrations (3.9×10^-9-4.9×10^-7 M), detected with a mouse anti-human VCAM-1 mAb; apparent Kd.

CNNSKSHTC (not fully specified (bridges); also: cyclic, type of ring bond not given here, also called VCAM PEPTIDE) [cyclic peptide CNNSKSHTC (SEQ ID No. 2)]: the “inhibition of cell adhesion (PMA-stimulated Jurkat cells on immobilized VCAM-1), IC50” value in experiment [1] came out at 63 µM. Besides, the Kd in experiment [2] was determined as 0.135 µM.

(Values after patent publication US20110200533A1 (GUERBET, published 2011).)
